Bridges are numbered along the chain shown (N, C = ends). Where no end group is shown, it is not given here.
Target: recombinant human angiopoietin-2 (human) (UniProt O15123)
Experiment: direct ELISA, rhAng2 coated on microplate wells, detection by HRP-anti-His tag antibody, OD450

Sequence of UniProt O15123 (O15123 19-496 limits assumed): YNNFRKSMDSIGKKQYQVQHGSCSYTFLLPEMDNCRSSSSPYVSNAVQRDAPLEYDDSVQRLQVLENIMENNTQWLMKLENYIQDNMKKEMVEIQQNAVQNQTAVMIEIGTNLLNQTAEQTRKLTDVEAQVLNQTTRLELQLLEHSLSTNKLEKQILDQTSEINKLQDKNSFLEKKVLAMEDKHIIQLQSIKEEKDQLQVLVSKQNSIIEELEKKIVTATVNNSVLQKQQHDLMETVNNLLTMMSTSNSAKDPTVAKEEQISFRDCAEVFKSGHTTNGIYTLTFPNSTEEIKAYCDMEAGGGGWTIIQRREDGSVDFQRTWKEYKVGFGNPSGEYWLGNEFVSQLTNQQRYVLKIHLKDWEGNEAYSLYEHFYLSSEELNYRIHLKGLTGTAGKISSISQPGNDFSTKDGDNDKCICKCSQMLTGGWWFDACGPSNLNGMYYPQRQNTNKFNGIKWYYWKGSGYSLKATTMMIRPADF

EC50 (read off the curve): 8 nM
B1: Construct 12: ELP-MRD fusion protein with a constrained rhAng2-targeting peptide (ANGd) sandwiched between ELP repeat modules (designed binder, not shown: small tags and cut ends)
chain: LWDDCYSFPNPPHCYNSP
modifications: disulfide 5-14 (inferred); not fully specified (N-terminus, C-terminus); also: peptide sandwiched between ELP repeat modules, ELP composition not given here

From US20140088019A1
